Data taken from FireProtDB (doi:10.1021/bi051266r).
“And” between values parts separate entries of the source, which are not always exact repeats. Equal entries are not always repeated.

Settings: Saccharolobus solfataricus (strain ATCC 35092 / DSM 1617 / JCM 11322 / P2), Thermal, DSC, Glycine 10 mM, transition: 3, reversible: yes, whole UniProt chain shown

B1: DNA/RNA-binding protein Alba 2 wild type, Q97ZF4 (protein)
chain: MTEKLNEIVVRKTKNVEDHVLDVIVLFNQGIDEVILKGTGREISKAVDVYNSLKDRLGDGVQLVNVQTGSEVRDRRRISYILLRLKRVY
- unfolding enthalpy (calorimetric) (pH 3.2): 20.3 kcal/mol and 42.8 kcal/mol
- unfolding enthalpy (van 't Hoff) (pH 3.2): 39.1 kcal/mol and 85.5 kcal/mol
- Tm (pH 4.2): 116 °C
- unfolding enthalpy (calorimetric) (pH 4.2): 47.8 kcal/mol
- unfolding enthalpy (van 't Hoff) (pH 4.2): 93.5 kcal/mol
- unfolding enthalpy (calorimetric) (pH 4.8): 37.8 kcal/mol and 47.3 kcal/mol
- unfolding enthalpy (van 't Hoff) (pH 4.8): 75.5 kcal/mol and 92.7 kcal/mol
- unfolding enthalpy (calorimetric) (pH 5.6): 44.8 kcal/mol and 56.9 kcal/mol
- unfolding enthalpy (van 't Hoff) (pH 5.6): 95.5 kcal/mol and 105 kcal/mol
- unfolding enthalpy (calorimetric) (pH 7.1): 27 kcal/mol and 44.9 kcal/mol
- unfolding enthalpy (van 't Hoff) (pH 7.1): 172 kcal/mol and 84.7 kcal/mol
